The text below walks through data of patent publication US20010034019A1, “Chimeric HCV/GBV-B viruses” (priority 1999, published 2001).

Data set [1] deals with T1, GBV-B NS5B ΔCT19 (Hepatitis GB virus B, UniProt Q69422).
T1 construct: initiator methionine (N); made in house; host or cells: E. coli JM109 (DE3)
T1 sequence (Q69422 2275-2845 limits assumed): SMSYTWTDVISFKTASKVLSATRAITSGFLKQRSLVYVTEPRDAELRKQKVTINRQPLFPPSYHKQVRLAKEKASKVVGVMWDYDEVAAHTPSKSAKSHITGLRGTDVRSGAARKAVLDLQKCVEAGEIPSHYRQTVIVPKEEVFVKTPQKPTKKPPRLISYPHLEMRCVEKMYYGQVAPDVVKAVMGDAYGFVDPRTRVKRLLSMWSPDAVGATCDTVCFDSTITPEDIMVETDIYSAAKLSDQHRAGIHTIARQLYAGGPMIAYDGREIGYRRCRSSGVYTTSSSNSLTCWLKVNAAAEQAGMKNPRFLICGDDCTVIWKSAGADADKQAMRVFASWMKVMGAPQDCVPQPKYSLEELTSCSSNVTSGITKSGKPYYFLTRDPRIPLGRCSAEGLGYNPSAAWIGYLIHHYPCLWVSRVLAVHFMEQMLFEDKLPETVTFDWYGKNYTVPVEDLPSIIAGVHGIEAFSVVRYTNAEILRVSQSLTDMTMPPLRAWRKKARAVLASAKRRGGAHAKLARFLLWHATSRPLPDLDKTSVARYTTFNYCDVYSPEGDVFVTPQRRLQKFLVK
Nature of the data set: Scintillation proximity assay (SPA) of RdRp activity. It is filed as biochemical. As for the experimental part:
Scintillation proximity assay (SPA). SPA was used to determine the standard activity of RdRp, and performed under standard conditions as described previously by Ferrari et al., supra. Briefly, reaction mixtures (50 μl in total volume) containing, in addition to other buffer components (20 mM HEPES, pH7.3, 7.5 mM DTT, 10 mM MnCl2, 100 mM NaCl, 50 μg/ml BSA and 2 units of RNasin), 250 ng of poly(C), 25 ng of biotinylated oligo(G)12, 5 μM GTP/ 0.1 μCi of ^3H-GTP and 175 ng of GBV-B NS5B protein were incubated in a 96-well plate at room temperature for 3 hours. The reactions were terminated by addition of 50 μl of 100 mM EDTA in phosphate-buffered saline (PBS), the products were captured by SPA beads coated with streptavidin and ^3H-GMP incorporation was determined with a scintillation counter.

For data set [2], the target named is T1, GBV-B NS5B ΔCT19. In words: Gel-based RdRp assay. The following applies: ZnCl2 0, 1, 2.5, 5, 7.5, 10 μM. It is filed as biochemical. As for the experimental part:
Gel-based RdRp assay. Standard activity assays were performed in a reaction mixture (40 μl) containing 20 mM HEPES, pH 7.3, 15 mM MnCl2, 100 μM of ATP, UTP, GTP and 10 μCi of α-^33P-CTP, 300 ng of purified protein and 0.2 μg of a 36-base synthetic RNA (5′-GGA25UAUAUAUAU-3′). The sequence of the RNA was designed to form a stem-loop at the 3′-end to support the “copy-back” priming of RNA synthesis. The polymerization reaction was performed at 30° C. for 1 hr and terminated by phenol and chloroform extraction. RNA was ethanol precipitated and separated on a 15% TBE/6 M urea polyacrylamide gel (Novex). The gel was fixed, vacuum dried and subjected to autoradiography.

Data set [3] relates to GBV-B NS4A 15-mer peptide (amino acids 22-36).
Data set [4] concerns GBV-B NS4A 18-mer peptide (amino acids 29-46).
The subject of data set [5] is GBV-B NS4A cofactor peptide (4A17; amino acids 20-36 of GBV-B NS4A).
Data set [6] has as its system GBV-B NS4A peptide (4A31; aa 16-46 of GBV-B NS4A).
In data set [7] the test system is HCV NS4A cofactor peptide (4A13; aa 22-34 of HCV NS4A).
In data set [8] the target is T1, GBV-B NS5B ΔCT19. Nature of the data set: RNA-binding (gel-shift) competition assay. As to conditions: for affinity order of binding to NS5B ΔCT19: competition with nonradiolabeled RNA homopolymers. As for the experimental part:
RNA-binding assay. The RNA binding assay was performed in a 10 μl reaction mixture containing 20 mM HEPES, pH 7.3, 7.5 mM MnCl2, 7.5 mM DTT, 5% glycerol, 125 mM NaCl, 100 μg per ml of BSA, 1 unit of RNase inhibitor, 100 ng of GBV-B NS5B protein, 1 pmol of an end-labeled RNA probe with the sequence of 5′-U28GGACUU CGGUCC-3′, and increasing amounts of homopolymeric RNA as depicted indicated in FIG. 12. The probe bound most tightly to the GBV-B NS5B among all the RNA probes of similar length tested (data not shown). Following incubation at room temperature for 30 min, the reaction mixture was separated on a nondenaturing 6% polyacrylamide gel at 180 volts for 1.25 hrs in 0.5×TBE buffer. The gel was dried and subjected to autoradiography.

Consider `OCC(O)CO` [Glycerol], for which the “concentration at which RdRp activity is inhibited” value in data set [1] (poly C template, oligoG12 primer) is on record as “higher than 3%”.

In the case of `[Cl-].[Cl-].[Mg+2]` [Mg^2+, MgCl2], the “ability of divalent cation to support RdRp activity” value in data set [1] (concentrations as high as 20 mM) is “could not replace Mn^2+ to support the activity”.

Take `[Cl][Mn][Cl]` [Mn^2+, MnCl2]: in data set [1] (titration 0-20 mM), the “optimal concentration of divalent cation for polymerase activity” value is on record as 15 mM.

`[Cl-].[Cl-].[Zn+2]` [Zn^2+, ZnCl2]: the “inhibition of GBV-B RdRp activity” value in data set [2] was “inhibits GBV-B RdRp activity at low-micromolar (μM) concentrations”.

Take “full-length GBV-B NS3 protease (GBV-B NS3-His)”: the “cofactor activity: enhancement of cleavage of GBV-B NS4A/4B substrate by 1.5 uM GBV-B NS3 (phosphorimaging)” value (shortened to “cofactor activity: enhancement”) in data set [3] is given as “a 15-mer peptide (amino acids 22-36), which is the minimum region that efficiently activates protease activity for trans-cleavage”. Besides, the “cofactor activity: enhancement” value in data set [4] is given as “did not possess the cofactor activity as it failed to enhance the protease activity”. For the same molecule, in data set [5], the “cofactor activity: enhancement” value is “a 17-mer peptide derived from amino acid 20 to 36 of NS4A retained the cofactor activity”; the “trans-cleavage of HCV (250 nM protease) and GBV-B (2 uM protease) NS4A/4B substrates by GBV-B NS3 with 100 uM peptide (SDS-PAGE)” value was “protease activation is dependent upon an NS4A cofactor from the same virus (GBV-B NS3 activated by the GBV-B NS4A peptide)”. Also, in data set [6], the “trans-cleavage of GBV-B NS4A/4B substrate by 2 uM GBV-B NS3 with or without 20 uM peptide (SDS-PAGE)” value is reported as “cleavage at the NS4A/NS4B junction by wild type GBV-B NS3 occurs only in the presence of the GBV-B NS4A cofactor”; the “trans-cleavage of GBV-B NS5A/5B substrate by 2 uM GBV-B NS3 with or without 20 uM peptide (SDS-PAGE)” value is reported as “processing at the NS5A/NS5B junction is also NS4A cofactor-dependent”; the “trans-cleavage of in vitro translated HCV NS4A/4B, NS4B/5A and NS5A/5B substrates by GBV-B NS3 with or without 20 uM peptide (SDS-PAGE)” value is reported as “substrate processing was greatly improved by the NS4A peptide”. Moreover, the “trans-cleavage of HCV (250 nM protease) and GBV-B (2 uM protease) NS4A/4B substrates by GBV-B NS3 with 100 uM peptide (SDS-PAGE)” value in data set [7] is on record as “protease activation is dependent upon an NS4A cofactor from the same virus (GBV-B NS3 not activated by the HCV NS4A peptide)”.

Turning to “full-length HCV NS3 protease (HCV His-NS3)”, the “trans-cleavage of HCV and GBV-B NS4A/4B substrates by 50 nM HCV NS3 with 100 uM peptide (SDS-PAGE)” value in data set [5] is on record as “protease activation is dependent upon an NS4A cofactor from the same virus (HCV NS3 not activated by the GBV-B NS4A peptide)”. Also, in data set [7], the “trans-cleavage of GBV-B NS4A/4B substrate by HCV NS3 with or without 100 uM peptide (SDS-PAGE)” value was “dose-dependent and NS4A cofactor-enhanced cleavage activity at the NS4A/4B junction site”; the “trans-cleavage of GBV-B NS4A/4B substrate by full-length HCV NS3 with HCV NS4A peptide (SDS-PAGE)” value is “also generated the cleavage products in an HCV NS4A cofactor-dependent manner”; the “trans-cleavage of GBV-B NS5A/5B substrate by HCV NS3 with or without 100 uM peptide (SDS-PAGE)” value was “Cleavage of the GBV-B NS5A/5B site was inefficient and required 10 µM of HCV NS3 protease and was cofactor dependent”; the “trans-cleavage of HCV and GBV-B NS4A/4B substrates by 50 nM HCV NS3 with 100 uM peptide (SDS-PAGE)” value is “protease activation is dependent upon an NS4A cofactor from the same virus (HCV NS3 activated by the HCV NS4A peptide)”.

As for poly (A), the “affinity order of binding to NS5B ΔCT19” value in data set [8] is “poly (U)>poly (G)>poly (A)>poly (C)”.

Consider poly (C), for which, in data set [8], the “affinity order of binding to NS5B ΔCT19” value is on record as “poly (U)>poly (G)>poly (A)>poly (C)”.

In the case of poly (U), the “competition for binding of NS5B ΔCT19 to labeled RNA probe” value in data set [8] (0.1, 1, 10, 100 x probe) was “competes most efficiently for binding”. The “affinity order of binding to NS5B ΔCT19” value in data set [8] is listed as “poly (U)>poly (G)>poly (A)>poly (C)”.
